In patent US20200024335A1 (BERG, published 2020):

T1: E. coli-expressed partial FLNB (aa1416-2089), Filamin B immunogen (human, UniProt O75369 1416-2089)
T1 construct: covers filamin repeats 13-19; also called partial FLNB protein
T1 sequence: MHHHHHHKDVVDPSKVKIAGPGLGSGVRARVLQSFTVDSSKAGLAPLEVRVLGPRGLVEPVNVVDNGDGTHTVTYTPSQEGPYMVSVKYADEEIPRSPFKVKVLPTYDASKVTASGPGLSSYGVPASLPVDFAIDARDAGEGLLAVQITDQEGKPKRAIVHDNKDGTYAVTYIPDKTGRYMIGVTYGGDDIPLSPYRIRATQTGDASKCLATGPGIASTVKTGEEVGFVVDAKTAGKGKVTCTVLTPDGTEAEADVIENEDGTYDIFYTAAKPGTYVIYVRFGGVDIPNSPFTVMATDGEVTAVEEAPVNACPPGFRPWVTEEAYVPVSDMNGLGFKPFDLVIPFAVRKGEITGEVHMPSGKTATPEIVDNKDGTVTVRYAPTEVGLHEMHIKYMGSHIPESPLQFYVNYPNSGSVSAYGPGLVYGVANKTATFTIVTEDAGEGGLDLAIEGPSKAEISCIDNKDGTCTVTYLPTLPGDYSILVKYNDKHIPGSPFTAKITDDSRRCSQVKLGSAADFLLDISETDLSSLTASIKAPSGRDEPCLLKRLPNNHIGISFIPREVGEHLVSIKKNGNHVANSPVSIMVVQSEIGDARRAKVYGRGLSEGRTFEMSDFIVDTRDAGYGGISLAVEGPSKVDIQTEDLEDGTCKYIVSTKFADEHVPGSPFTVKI

T2: E. coli-expressed partial FLNC (aa 1438-2128) (Homo sapiens (Human), UniProt Q14315 1438-2128)
T2 construct: Covers the same region as FLNB aa1416-2089; also called Partial Filamin C (aa 1438-2128)
T2 sequence: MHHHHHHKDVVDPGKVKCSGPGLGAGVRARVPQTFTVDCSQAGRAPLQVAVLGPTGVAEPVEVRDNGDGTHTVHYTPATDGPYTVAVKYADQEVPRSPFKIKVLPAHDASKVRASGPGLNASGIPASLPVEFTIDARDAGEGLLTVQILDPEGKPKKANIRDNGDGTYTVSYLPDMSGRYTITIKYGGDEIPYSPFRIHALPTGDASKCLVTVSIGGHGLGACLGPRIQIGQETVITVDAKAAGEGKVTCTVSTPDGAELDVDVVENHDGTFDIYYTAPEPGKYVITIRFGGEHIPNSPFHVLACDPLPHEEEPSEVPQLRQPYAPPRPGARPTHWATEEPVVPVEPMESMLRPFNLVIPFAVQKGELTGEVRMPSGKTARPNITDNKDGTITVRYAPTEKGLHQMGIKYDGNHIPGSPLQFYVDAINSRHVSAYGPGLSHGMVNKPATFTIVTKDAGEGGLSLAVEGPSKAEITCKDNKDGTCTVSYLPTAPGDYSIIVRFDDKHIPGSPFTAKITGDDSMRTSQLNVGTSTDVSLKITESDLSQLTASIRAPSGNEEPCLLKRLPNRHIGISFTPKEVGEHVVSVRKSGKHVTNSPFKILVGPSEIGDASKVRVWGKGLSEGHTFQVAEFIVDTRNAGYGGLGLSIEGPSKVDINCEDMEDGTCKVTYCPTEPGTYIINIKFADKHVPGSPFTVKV

T3: E. coli-expressed partial FLNA (aa1443-2131) (Homo sapiens (Human), UniProt P21333 1443-2131)
T3 construct: Covers the same region as FLNB aa1416-2089; also called Partial Filamin A (aa 1443-2131)
T3 sequence: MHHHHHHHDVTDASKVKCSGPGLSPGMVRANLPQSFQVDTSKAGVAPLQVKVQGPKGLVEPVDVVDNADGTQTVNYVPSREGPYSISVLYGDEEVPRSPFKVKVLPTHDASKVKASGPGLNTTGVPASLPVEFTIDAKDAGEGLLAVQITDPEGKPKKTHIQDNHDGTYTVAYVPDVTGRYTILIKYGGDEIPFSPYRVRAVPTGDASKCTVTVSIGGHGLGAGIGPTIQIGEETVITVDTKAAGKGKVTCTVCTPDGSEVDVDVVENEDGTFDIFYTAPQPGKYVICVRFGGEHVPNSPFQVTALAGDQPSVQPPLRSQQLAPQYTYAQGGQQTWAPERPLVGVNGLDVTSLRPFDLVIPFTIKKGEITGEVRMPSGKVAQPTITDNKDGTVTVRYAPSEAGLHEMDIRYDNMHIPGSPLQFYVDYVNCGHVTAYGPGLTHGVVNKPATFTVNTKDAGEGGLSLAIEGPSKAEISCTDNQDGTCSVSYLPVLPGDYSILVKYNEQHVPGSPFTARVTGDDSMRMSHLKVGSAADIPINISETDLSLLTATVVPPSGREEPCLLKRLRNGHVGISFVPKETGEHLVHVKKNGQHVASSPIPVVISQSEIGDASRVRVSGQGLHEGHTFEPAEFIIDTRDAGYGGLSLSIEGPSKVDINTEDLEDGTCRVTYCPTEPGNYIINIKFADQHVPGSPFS


Assays:
[1] = molecular target: E. coli-expressed partial FLNB (aa1416-2089), Filamin B immunogen (human) (UniProt O75369); assay: ELISA, coated protein, negative control
[2] = molecular target: E. coli-expressed partial FLNA (aa1443-2131) (Homo sapiens (Human)) (UniProt P21333); assay: ELISA, coated protein, negative control
[3] = molecular target: HEK293-expressed full length FLNA (Homo sapiens (Human)) (UniProt P21333); assay: ELISA, coated protein, negative control
[4] = molecular target: T4, HEK293-expressed full length FLNB (human, UniProt O75369 2-2601); assay: ELISA, coated protein, negative control
T4 construct: prepared by GenScript; also called full length human FLN-B protein

[5] = molecular target: E. coli-expressed partial FLNC (aa 1438-2128) (Homo sapiens (Human)) (UniProt Q14315); assay: ELISA, coated protein, negative control
[6] = molecular target: HEK293-expressed full length FLNA (Homo sapiens (Human)) (UniProt P21333); assay: ELISA, coated protein, hybridoma supernatant
[7] = molecular target: 10% pooled normal human serum; assay: ELISA, coated 10% serum, hybridoma supernatant
[8] = molecular target: T1, E. coli-expressed partial FLNB …; assay: ELISA, coated protein, hybridoma supernatant
Excerpt: (§1) Filamin A (FLNA) and Filamin C (FLNC) are the other two members in the Filamin family; they share 69% and 61% identity to FLNB, respectively. The clones were screened for negative with E. coli-expressed partial FLNA (aa1443-2131) and E. coli-expressed FLNC (aa 1438-2128) which cover the same region as FLN-B (aa1416-2089), and HEK293-expressed full length FLNA. 10% human serum was further tested for any unexpected cross-reactivity. The Partial FLNA (aa 1443-2131) protein sequence is shown in SEQ ID NO: 32. Partial FLNC (aa 1438-2128) protein sequence is shown in SEQ ID NO: 33. Full length FLNA protein sequence is shown in SEQ ID NO: 34.
(§2) Next, the proteins were coated and tested for supernatants from clones 3F10 and 5H7 by ELISA. […] FLNB proteins were tested for specificity, while homologous proteins FLNA and FLNC from the same family were tested for any cross-reactivity. 10% pooled normal human serum was also included for any unexpected non-specific binding.

[9] = molecular target: T2, E. coli-expressed partial FLNC (aa …); assay: ELISA, coated protein, hybridoma supernatant
Excerpt: as §1, §2

[10] = molecular target: T3, E. coli-expressed partial FLNA …; assay: ELISA, coated protein, hybridoma supernatant
Excerpt: as §1, §2

[11] = molecular target: T4, HEK293-expressed full length FLNB; assay: ELISA, coated protein, hybridoma supernatant
Excerpt: as §1, §2

[12] = molecular target: T4, HEK293-expressed full length FLNB; assay: BLI (Octet), antibody on anti-mIgG Fc capture sensor, FLNB 25 nM
[13] = molecular target: T5, HEK293-expressed full length FLNA (Homo sapiens (Human), UniProt P21333 2-2647); assay: ELISA, coated protein, hybridoma supernatant
T5 construct: also called Full length Filamin A
Excerpt: as §1, §2

T4 sequence (O75369 other isoform, or with tags, fused parts or gaps): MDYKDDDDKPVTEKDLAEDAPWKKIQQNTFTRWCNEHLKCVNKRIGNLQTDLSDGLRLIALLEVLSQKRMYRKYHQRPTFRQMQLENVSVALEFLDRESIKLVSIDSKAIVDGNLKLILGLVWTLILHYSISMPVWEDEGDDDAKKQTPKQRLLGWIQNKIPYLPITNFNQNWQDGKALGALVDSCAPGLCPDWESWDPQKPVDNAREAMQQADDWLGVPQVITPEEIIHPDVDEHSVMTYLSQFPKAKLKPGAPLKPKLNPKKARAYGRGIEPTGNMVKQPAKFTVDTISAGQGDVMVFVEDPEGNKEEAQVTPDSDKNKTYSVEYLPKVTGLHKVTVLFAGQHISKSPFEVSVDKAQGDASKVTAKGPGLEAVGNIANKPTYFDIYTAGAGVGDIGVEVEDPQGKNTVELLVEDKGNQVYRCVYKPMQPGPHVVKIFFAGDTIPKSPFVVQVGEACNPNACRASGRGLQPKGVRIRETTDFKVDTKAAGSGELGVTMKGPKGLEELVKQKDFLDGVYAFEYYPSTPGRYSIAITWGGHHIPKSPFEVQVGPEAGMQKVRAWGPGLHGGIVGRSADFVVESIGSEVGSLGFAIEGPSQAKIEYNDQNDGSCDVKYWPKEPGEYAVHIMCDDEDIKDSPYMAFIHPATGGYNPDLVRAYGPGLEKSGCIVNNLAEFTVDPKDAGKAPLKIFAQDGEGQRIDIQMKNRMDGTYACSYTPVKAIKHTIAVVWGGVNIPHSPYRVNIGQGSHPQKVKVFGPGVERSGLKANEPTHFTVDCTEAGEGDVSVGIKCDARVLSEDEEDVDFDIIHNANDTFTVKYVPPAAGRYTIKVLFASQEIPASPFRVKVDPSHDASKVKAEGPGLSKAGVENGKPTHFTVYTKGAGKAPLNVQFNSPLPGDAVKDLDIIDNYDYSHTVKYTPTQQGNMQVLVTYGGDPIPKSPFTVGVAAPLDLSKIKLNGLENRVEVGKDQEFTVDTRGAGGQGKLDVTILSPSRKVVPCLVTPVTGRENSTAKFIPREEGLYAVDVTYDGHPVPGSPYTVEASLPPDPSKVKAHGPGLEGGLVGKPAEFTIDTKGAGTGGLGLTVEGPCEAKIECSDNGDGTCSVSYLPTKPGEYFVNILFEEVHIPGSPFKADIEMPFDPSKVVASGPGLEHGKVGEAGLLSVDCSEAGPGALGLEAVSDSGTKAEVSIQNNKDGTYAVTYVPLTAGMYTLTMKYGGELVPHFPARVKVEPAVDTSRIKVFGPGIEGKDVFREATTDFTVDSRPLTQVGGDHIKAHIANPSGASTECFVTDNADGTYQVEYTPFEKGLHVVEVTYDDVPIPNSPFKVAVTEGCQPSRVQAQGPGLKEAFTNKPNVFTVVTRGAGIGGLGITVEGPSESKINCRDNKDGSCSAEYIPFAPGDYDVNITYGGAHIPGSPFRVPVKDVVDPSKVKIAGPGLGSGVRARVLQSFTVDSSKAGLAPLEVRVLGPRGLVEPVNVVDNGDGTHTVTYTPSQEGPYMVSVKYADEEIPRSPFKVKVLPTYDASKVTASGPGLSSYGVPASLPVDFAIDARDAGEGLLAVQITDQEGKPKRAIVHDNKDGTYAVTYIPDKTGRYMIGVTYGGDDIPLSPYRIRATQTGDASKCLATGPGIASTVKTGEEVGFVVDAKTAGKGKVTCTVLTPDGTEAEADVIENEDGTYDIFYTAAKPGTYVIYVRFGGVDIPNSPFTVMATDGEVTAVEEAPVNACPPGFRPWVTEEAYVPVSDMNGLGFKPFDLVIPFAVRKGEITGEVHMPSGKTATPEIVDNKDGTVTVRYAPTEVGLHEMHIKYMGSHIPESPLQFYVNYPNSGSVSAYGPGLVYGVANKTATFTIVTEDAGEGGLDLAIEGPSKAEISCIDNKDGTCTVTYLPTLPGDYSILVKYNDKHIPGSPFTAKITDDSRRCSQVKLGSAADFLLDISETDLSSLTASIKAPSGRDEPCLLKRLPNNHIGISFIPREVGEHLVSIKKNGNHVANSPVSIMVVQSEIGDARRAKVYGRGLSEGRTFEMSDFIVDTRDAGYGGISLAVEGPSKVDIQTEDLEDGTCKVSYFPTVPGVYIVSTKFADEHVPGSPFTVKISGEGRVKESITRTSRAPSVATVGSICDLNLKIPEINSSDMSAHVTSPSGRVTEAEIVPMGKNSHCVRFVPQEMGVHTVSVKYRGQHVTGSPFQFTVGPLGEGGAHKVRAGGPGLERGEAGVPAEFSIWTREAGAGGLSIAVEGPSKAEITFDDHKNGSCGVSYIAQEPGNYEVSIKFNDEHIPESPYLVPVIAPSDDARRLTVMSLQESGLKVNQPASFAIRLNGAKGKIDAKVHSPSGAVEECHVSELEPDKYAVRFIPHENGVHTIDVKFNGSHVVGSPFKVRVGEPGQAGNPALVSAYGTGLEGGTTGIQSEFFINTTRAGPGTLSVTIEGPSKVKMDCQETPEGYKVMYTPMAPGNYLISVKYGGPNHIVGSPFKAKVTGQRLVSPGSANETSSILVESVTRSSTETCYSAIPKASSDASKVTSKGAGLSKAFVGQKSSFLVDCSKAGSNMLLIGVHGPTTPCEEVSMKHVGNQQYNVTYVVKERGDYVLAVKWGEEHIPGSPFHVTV

Molecule | ELISA test result [1] | ELISA test result [2] | ELISA test result [3] | ELISA test result [4] | ELISA test result [5] | ELISA test result [6] | ELISA test result [7] | ELISA test result [8] | ELISA test result [9] | binding result [9] | ELISA test result [10] | binding result [10] | ELISA test result [11] | Kd [12] | koff [12] | kon [12] | ELISA test result [13] | binding result [13]
Neg ctl (negative control of the specificity ELISA) | 0.04 | 0.05 | 0.073 | 0.06 | 0.05 | – | – | – | – | – | – | – | – | – | – | – | – | –
5H7 murine monoclonal anti-FLNB antibody (antibody, IgG2b, V domains shown, also called clone 5H7; biotin-linked monoclonal antibody specific for FLNB (5H7)) VH: DVQLQESGPGLVKPSQSLSLTCSVTGYSITSGYYWNWIRQFPGNKLEWMGYISYDGSNNYNPSLKNRISITRDTSKNQFFLRLNSVTTEDTATYYCARETWASFDYWGQGTTLTVSS VL: DIVMTQSQKFMSTTVGDRVGITCKASQNVGIAVAWYQQKPGQSPRLLIYSASYRYTGVPDRFSGSGSGTDFTLTINNMQSEDLADYFCQQYSSYPLTFGSGTKLEIK | – | – | – | – | – | 0.191 | 0.123 | 3.48 | 0.05 | no binding | 0.05 | no binding | 3.49 | < 1 pM | < 1e-07 s⁻¹ | 250000 M⁻¹ s⁻¹ | – | –
3F10 murine monoclonal anti-FLNB antibody (antibody, V domains shown, Tested as hybridoma supernatant or purified antibody; also called clone 3F10; anti-FLNB antibody (3F10)) VH: QVQLQQPGAELVKPGASVKLSCKASGYTFTSYWMHWVKQRPGQGLEWIGMIHPNSGSTNYNEKFKSKATLTVDKSSSTAYMQLSSLTSEDSAVYYCAIYGSGPWFAYWGQGTLVTVSA VL: DIQMTQSPASLSASVGETVTITCRASENIYSSLAWYQQKQGKSPQLLVYYAKTLAEGVPSRFSGSGSGTQFSLKINRLQPEDFGSYYCQHHYGSPLTFGAGTKLELK | – | – | – | – | – | – | 0.048 | 3.87 | 0.06 | no binding | 0.05 | no binding | 2.36 | < 1 pM | < 1e-07 s⁻¹ | 270000 M⁻¹ s⁻¹ | 0.076 | no binding
